Data taken from patent US9212226B2, “Amino acid sequences directed against CXCR4 and other GPCRs and compounds comprising the same” (Ablynx N.V., priority 2008, dated 2015).

T1: CXCR3 (Homo sapiens, UniProt P49682)
T1 sequence (P49682 1-368): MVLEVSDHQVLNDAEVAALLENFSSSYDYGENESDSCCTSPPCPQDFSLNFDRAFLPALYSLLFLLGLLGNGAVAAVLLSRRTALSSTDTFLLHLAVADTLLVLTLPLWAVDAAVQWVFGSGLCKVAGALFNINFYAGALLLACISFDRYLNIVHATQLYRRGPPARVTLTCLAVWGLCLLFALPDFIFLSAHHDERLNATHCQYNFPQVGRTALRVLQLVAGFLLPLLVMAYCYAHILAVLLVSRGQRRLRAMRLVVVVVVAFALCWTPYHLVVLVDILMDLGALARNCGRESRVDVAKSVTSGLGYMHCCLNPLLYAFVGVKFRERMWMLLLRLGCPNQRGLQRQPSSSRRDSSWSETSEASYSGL


Biological target: T1, CXCR3
Experiment: Binding of [125I]-238D2 / [125I]-238D4 to membranes from HEK293T cells expressing CXCR4 or CXCR3
Conditions: radiolabelled Nanobody

Molecule	binding to CXCR4 membranes compared to CXCR3 membranes
[^125I]-238D4: 125I-labeled Nanobody 238D4 used as radioligand (protein) VHH: EVQLMESGGGLVQAGGSLRLSCAASGRTFNNYAMGWFRRAPGKEREFVAAITRSGVRSGVSAIYGDSVKDRFTISRDNAKNTLYLQMNSLKPEDTAVYTCAASAIGSGALRRFEYDYSGQGTQVTVSS	selectively bind
[^125I]-238D2: 125I-labeled Nanobody 238D2 used as radioligand (protein) VHH: EVQLVESGGGLVQTGGSLRLSCAASGFTFSSYAMSWVRQAPGKGLEWVSGIKSSGDSTRYAGSVKGRFTISRDNAKNMLYLQMYSLKPEDTAVYYCAKSRVSRTGLYTYDNRGQGTQVTVSS	selectively bind
